B1: monoclonal antibody F29-40 (antibody, V domains shown)
VH: EVQLEESGPELVKPGTSVKISCKASGYSFTGYIINWVMQSQGKTPEWIGRINPNNGDTSYNQKFKGKATLTVDRSSSTAHMEVRSLTSEDSAVYYCARTGFGYWGQGTLVTVSA
VL: DIVITQTPASLAVSLGQRATISCRASESINYYGTNLLQWYQQKPGQPPKLLIYAASNVESGVPARFSGSGSGTDFSLNIHPVEEDDIAMYFCQQSRKVPFTFGSGTRLEIK
notes: also called mAb F29-40
B2: monoclonal antibody MCS6-27 (antibody, V domains shown)
VH: EVQLEQSGPGLVKPSQSLSLTCTVTGYSITNDYAWNWIRQFPGNKLEWMGYINYSGTTSYNPSLKSRISITRDTSKNQFFLQFNSVTTEDTATYYCARSPLAYWGQGTLVTVSA
VL: DIVLTQTPASLSVSVGETVTITCRASENIYSHLAWYQQKQGKSPQLLVYTATNLADGVPSRFSGRGSGTQYSLKINSLQSEDFGIYFCQHFWGTPWTFGGGTKLEIK
notes: also called mAb MCS6-27

Key:
[1] = target: T1, BoNT/B GST-fusion peptide fragment H1 (Clostridium botulinum strain Okra / …, UniProt B1INP5); assay: ELISA; conditions: one partner purified
T1 construct: not shown: GST, N-terminal, kept

[2] = target: T2, Botulinum neurotoxin serotype C (Clostridium botulinum, UniProt P18640); assay: ELISA; conditions: both partners purified
T2 construct: source: bought: Metabiologics

[3] = target: T3, BoNT/B GST-fusion peptide fragment L2 (Clostridium botulinum strain Okra / …, UniProt B1INP5); assay: ELISA; conditions: one partner purified
T3 construct: Cloned in pGS-21a; not shown: GST, N-terminal, kept

[4] = target: T4, BoNT/B GST-fusion peptide fragment L1 (Clostridium botulinum strain Okra / …, UniProt B1INP5); assay: ELISA; conditions: one partner purified
T4 construct: not shown: GST, N-terminal, kept

[5] = target: T5, BoNT/B GST-fusion peptide fragment H2 (Clostridium botulinum strain Okra / …, UniProt B1INP5); assay: ELISA; conditions: one partner purified
T5 construct: not shown: GST, N-terminal, kept

[6] = target: T6, Botulinum neurotoxin serotype D (Clostridium botulinum, UniProt P19321); assay: ELISA; conditions: both partners purified
T6 construct: source: bought: Metabiologics

[7] = target: T7, BoNT/B GST-fusion peptide fragment H4 (Clostridium botulinum strain Okra / …, UniProt B1INP5); assay: ELISA; conditions: one partner purified
T7 construct: not shown: GST, N-terminal, kept

[8] = target: T8, BoNT/B GST-fusion peptide fragment Lc (Clostridium botulinum Okra / Type B1, UniProt B1INP5); assay: ELISA; conditions: one partner purified
T8 construct: not shown: GST, N-terminal, kept

[9] = target: BoNT/B heavy chain (band of the reduced holotoxin) (Clostridium botulinum Okra / Type B1, UniProt B1INP5); assay: far-Western, overlay or dot blot; conditions: both partners purified
[10] = target: T9, BoNT/B GST-fusion peptide fragment H5 (Clostridium botulinum Okra / Type B1, UniProt B1INP5); assay: ELISA; conditions: one partner purified
T9 construct: Cloned in pGS-21a; not shown: GST, N-terminal, kept

[11] = target: T10, BoNT/B GST-fusion peptide fragment Hc (Clostridium botulinum strain Okra / …, UniProt B1INP5); assay: ELISA; conditions: one partner purified
T10 construct: Cloned in pGS-21a; not shown: GST, N-terminal, kept

[12] = target: T11, BoNT/B GST-fusion peptide fragment H3 (Clostridium botulinum strain Okra / …, UniProt B1INP5); assay: ELISA; conditions: one partner purified
T11 construct: Cloned in pGS-21a; not shown: GST, N-terminal, kept

[13] = target: T11, BoNT/B GST-fusion peptide fragment H3; assay: ELISA; conditions: one partner purified; remark: listed apart in the source

Binder | binding result [1] | binding result [2] | binding result [3] | binding result [4] | binding result [5] | binding result [6] | binding result [7] | binding result [8] | binding result [9] | binding result [10] | binding result [11] | binding result [12] | binding result [13]
B1 | no binding | no binding (tested: 10 µg/mL) | no binding | no binding | no binding | no binding (tested: 10 µg/mL) | no binding | no binding | binds | binds | binds | binds | 
B2 | no binding | no binding (tested: 10 µg/mL) | no binding | no binding | no binding | no binding (tested: 10 µg/mL) | no binding | no binding |  | binds | binds |  | no binding

Reference: publication PMC2883556 (PLoS ONE, 2010)
